B1: WT1 C1 (analogue) (peptide)
peptide: YLLPAVPSL
B2: A3 WT1 C (native) (peptide)
peptide: FMCAYPGCNK
B3: A3 WT1 C2 (analogue) (peptide)
peptide: FMCAYPFCNK
B4: A3 WT1 C3 (analogue) (peptide)
peptide: FMYAYPFCNK
B5: A3 WT1 C1 (analogue) (peptide)
peptide: FMYAYPGCNK
B6: A3 WT1 A (native) (peptide)
peptide: NMHQRNMTK
B7: A3 WT1 A1 (analogue) (peptide)
peptide: NMYQRNMTK
B8: A3 WT1 A3 (analogue) (peptide)
peptide: NMYQRVMTK
B9: A3 WT1 A2 (analogue) (peptide)
peptide: NMHQRVMTK
B10: A3 WT1 B (native) (peptide)
peptide: QMNLGATLK
B11: A3 WT1 B3 (analogue) (peptide)
peptide: QMYLGVTLK
B12: A3 WT1 B2 (analogue) (peptide)
peptide: QMNLGVTLK
B13: A3 WT1 B1 (analogue) (peptide)
peptide: QMYLGATLK
B14: A3 WT1 D (native) (peptide)
peptide: KLSHLQMHSR
B15: A3 WT1 D3 (analogue) (peptide)
peptide: KLYHLQMHSK
B16: A3 WT1 D1 (analogue) (peptide)
peptide: KLYHLQMHSR
B17: A3 WT1 D2 (analogue) (peptide)
peptide: KLSHLQMHSK
B18: WT1 D1 (analogue) (peptide)
peptide: YLGATLKGV
B19: WT1 B1 (analogue) (peptide)
peptide: YLGEQQYSV
B20: WT1 A1 (analogue) (peptide)
peptide: YMFPNAPYL
B21: WT1 C (native) (peptide)
peptide: ALLPAVPSL
B22: WT1 D (native) (peptide)
peptide: NLGATLKGV
B23: WT1 B (native) (peptide)
peptide: SLGEQQYSV
B24: WT1 A (native) (peptide)
peptide: RMFPNAPYL
notes: also called WT1A (126-134)

molecular target: T1, HLA-A0201 molecule on T2 cells (TAP-, HLA-A0201+) (human); assay: T2 stabilization assay of Example 1, as told in the description
T1 construct: MHC class I molecule without a defined peptide; also called HLA-A2.1
Procedure: (§1) T2 cells (TAP⁻, HLA-A0201⁺) were incubated overnight at 27° C. at a concentration of 1×10⁶ cells/ml in FCS-free RPMI medium supplemented with 5 μg/ml human β₂m (Sigma, St Louis, Mo.) in the absence (negative control) or presence of either a positive reference tyrosinase peptide or test peptides at various final concentrations (50, 10, 1, and 0.1 micrograms (μg)/ml). Following a 4-hour incubation with 5 μg/ml brefeldin A (Sigma), T2 cells were labeled for 30 minutes at 4° C. with a saturating concentration of anti-HLA-A2.1 (BB7.2) mAb, then washed twice. Cells were then incubated for 30 minutes, 4° C. with a saturating concentration of FITC-conjugated goat IgG F(ab′)2 anti-mouse Ig (Caltag, San Francisco, Calif.), washed twice, fixed in PBS/1% paraformaldehyde and analyzed using a FACS Calibur® cytofluorometer (Becton Dickinson, Immunocytometry Systems, San Jose, Calif.).
(§2) Following initial evaluation of peptide binding at time 0, cells were washed in RPMI complete medium to remove free peptides and incubated in the continuous presence of 0.5 μg/ml brefeldin-A for 2, 4, 6 or 8 hours.

| binding result | Binder |
| --- | --- |
| binds | B1 |

molecular target: T2, HLA-A0301 molecule on Raji HLA-A0301 cells (human); assay: thermostabilization assay on Raji HLA-A0301 cells, fluorescence index
T2 construct: It says only 'thermostabilization assays using; Raji HLA-A0301 cells'

| binding result | Binder |
| --- | --- |
| binds | B2 |
| binds | B3 |
| binds | B4 |
| binds | B5 |
| binds | B6 |
| binds | B7 |
| binds | B8 |
| binds | B9 |
| binds | B10 |
| binds | B11 |
| binds | B12 |
| binds | B13 |
| binds | B14 |
| binds | B15 |
| binds | B16 |
| binds | B17 |

molecular target: T1, HLA-A0201 molecule on T2 cells (TAP-, …); assay: T2 thermostabilization assay, flow cytometry of surface HLA-A2 (BB7.2), fluorescence index
Procedure: as §1, §2

| binding result | Binder |
| --- | --- |
| binds | B18 |
| binds | B19 |
| binds | B20 |

molecular target: T1, HLA-A0201 molecule on T2 cells (TAP-, …); assay: T2 thermostabilization assay, flow cytometry of surface HLA-A2 (BB7.2), fluorescence index; native peptide as reference
Procedure: as §1, §2

| binding result | Binder |
| --- | --- |
| binds | B21 |
| binds | B22 |
| binds | B23 |
| binds | B24 |

Reference: patent publication US20100092522A1 (published 2010)
